Earlier results on two substances are cited in paper PMC4474783.

Series [1] has as its target calnexin (Homo sapiens) (UniProt P27824).
Series [2] has as its target calreticulin (Homo sapiens) (UniProt P27797).
The target of series [3] is calnexin P-domain (Homo sapiens) (UniProt P27824). The series is described as follows: ITC. (In general: Isothermal titration calorimetry measures the heat released or taken up as one component is titrated into another.)
In series [4] the target is calreticulin 189-288 (Homo sapiens) (UniProt P27797).

Consider CypB (from UniProt P23284), for which the Kd in series [1] and in series [2] was 10 µM each time.
For ERp57 (from UniProt P30101), the Kd in series [3] is 26 µM; in series [4] it was 9 µM.

By Kd is commonly meant the constant that tells how readily two partners part at equilibrium.
